# Test results published in PMC1636413 (Nucleic Acids Research, 2006).
# Values joined by “and” are separate entries in the source; they are usually repeats but may differ in a detail not shown here. Equal entries are not always repeated.
# Experiments:
# [1] = biological target: the molecule itself; assay: SEC
# [2] = biological target: the molecule itself; assay: SEC; remark: listed apart in the source
# [3] = biological target: the molecule itself; assay: AUC
Protein,stoichiometry N [1],stoichiometry N [2],stoichiometry N [3]
"MutS^CF (cysteine-free full-length E.coli MutS, N-terminal His6-tagged) (natural protein, UniProt P23909 1-853, looked up) MSAIENFDAHTPMMQQYLRLKAQHPEILLFYRMGDFYELFYDDAKRASQLLDISLTKRGASAGEPIPMAGIPYHAVENYLAKLVNQGESVAIAEQIGDPATSKGPVERKVVRIVTPGTISDEALLQERQDNLLAAIWQDSKGFGYATLDISSGRFRLSEPADRETMAAELQRTNPAELLYAEDFAEMSLIEGRRGLRRRPLWEFEIDTARQQLNLQFGTRDLVGFGVENAPRGLSAAGALLQYAKDTQRTTLPHIRSITMEREQDSIIMDAATRRNLEITQNLAGGAENTLASVLDSTVTPMGSRMLKRWLHMPVRDTRVLLERQQTIGALQDFTAGLQPVLRQVGDLERILARLALRTARPRDLARMRHAFQQLPELRAQLETVDSAPVQALREKMGEFAELRDLLERAIIDTPPVLVRDGGVIASGYNEELDEWRALADGATDYLERLEVRERERTGLDTLKVGFNAVHGYYIQISRGQSHLAPINYMRRQTLKNAERYIIPELKEYEDKVLTSKGKALALEKQLYEELFDLLLPHLEALQQSASALAELDVLVNLAERAYTLNYTSPTFIDKPGIRITEGRHPVVEQVLNEPFIANPLNLSPQRRMLIITGPNMGGKSTYMRQTALIALMAYIGSYVPAQKVEIGPIDRIFTRVGAADDLASGRSTFMVEMTETANILHNATEYSLVLMDEIGRGTSTYDGLSLAWAVAENLANKIKALTLFATHYFELTQLPEKMEGVANVHLDALEHGDTIAFMHSVQDGAASKSYGLAVAALAGVPKEVIKRARQKLRELESISPNAAATQVDGTQMSLLSVPEETSPAVEALENLDPDSLTPRQALEWIYRLKSLV",4 and 2,–,–
"MutS^CF/D835R (cysteine-free full-length E.coli MutS with D835R, N-terminal His6-tagged) (natural protein, UniProt P23909 1-853, looked up) MSAIENFDAHTPMMQQYLRLKAQHPEILLFYRMGDFYELFYDDAKRASQLLDISLTKRGASAGEPIPMAGIPYHAVENYLAKLVNQGESVAIAEQIGDPATSKGPVERKVVRIVTPGTISDEALLQERQDNLLAAIWQDSKGFGYATLDISSGRFRLSEPADRETMAAELQRTNPAELLYAEDFAEMSLIEGRRGLRRRPLWEFEIDTARQQLNLQFGTRDLVGFGVENAPRGLSAAGALLQYAKDTQRTTLPHIRSITMEREQDSIIMDAATRRNLEITQNLAGGAENTLASVLDSTVTPMGSRMLKRWLHMPVRDTRVLLERQQTIGALQDFTAGLQPVLRQVGDLERILARLALRTARPRDLARMRHAFQQLPELRAQLETVDSAPVQALREKMGEFAELRDLLERAIIDTPPVLVRDGGVIASGYNEELDEWRALADGATDYLERLEVRERERTGLDTLKVGFNAVHGYYIQISRGQSHLAPINYMRRQTLKNAERYIIPELKEYEDKVLTSKGKALALEKQLYEELFDLLLPHLEALQQSASALAELDVLVNLAERAYTLNYTSPTFIDKPGIRITEGRHPVVEQVLNEPFIANPLNLSPQRRMLIITGPNMGGKSTYMRQTALIALMAYIGSYVPAQKVEIGPIDRIFTRVGAADDLASGRSTFMVEMTETANILHNATEYSLVLMDEIGRGTSTYDGLSLAWAVAENLANKIKALTLFATHYFELTQLPEKMEGVANVHLDALEHGDTIAFMHSVQDGAASKSYGLAVAALAGVPKEVIKRARQKLRELESISPNAAATQVDGTQMSLLSVPEETSPAVEALENLDPRSLTPRQALEWIYRLKSLV",2,–,–
"MutS^wt (E.coli MutS, full-length, N-terminal His6-tagged) (natural protein, UniProt P23909 1-853, looked up) MSAIENFDAHTPMMQQYLRLKAQHPEILLFYRMGDFYELFYDDAKRASQLLDISLTKRGASAGEPIPMAGIPYHAVENYLAKLVNQGESVAICEQIGDPATSKGPVERKVVRIVTPGTISDEALLQERQDNLLAAIWQDSKGFGYATLDISSGRFRLSEPADRETMAAELQRTNPAELLYAEDFAEMSLIEGRRGLRRRPLWEFEIDTARQQLNLQFGTRDLVGFGVENAPRGLCAAGCLLQYAKDTQRTTLPHIRSITMEREQDSIIMDAATRRNLEITQNLAGGAENTLASVLDCTVTPMGSRMLKRWLHMPVRDTRVLLERQQTIGALQDFTAGLQPVLRQVGDLERILARLALRTARPRDLARMRHAFQQLPELRAQLETVDSAPVQALREKMGEFAELRDLLERAIIDTPPVLVRDGGVIASGYNEELDEWRALADGATDYLERLEVRERERTGLDTLKVGFNAVHGYYIQISRGQSHLAPINYMRRQTLKNAERYIIPELKEYEDKVLTSKGKALALEKQLYEELFDLLLPHLEALQQSASALAELDVLVNLAERAYTLNYTCPTFIDKPGIRITEGRHPVVEQVLNEPFIANPLNLSPQRRMLIITGPNMGGKSTYMRQTALIALMAYIGSYVPAQKVEIGPIDRIFTRVGAADDLASGRSTFMVEMTETANILHNATEYSLVLMDEIGRGTSTYDGLSLAWACAENLANKIKALTLFATHYFELTQLPEKMEGVANVHLDALEHGDTIAFMHSVQDGAASKSYGLAVAALAGVPKEVIKRARQKLRELESISPNAAATQVDGTQMSLLSVPEETSPAVEALENLDPDSLTPRQALEWIYRLKSLV",2 and 4,–,–
"MutS800^CF (cysteine-free truncated E.coli MutS, residues 1-800, N-terminal His6-tagged) (domain or fragment, UniProt P23909 1-800, looked up) MSAIENFDAHTPMMQQYLRLKAQHPEILLFYRMGDFYELFYDDAKRASQLLDISLTKRGASAGEPIPMAGIPYHAVENYLAKLVNQGESVAIAEQIGDPATSKGPVERKVVRIVTPGTISDEALLQERQDNLLAAIWQDSKGFGYATLDISSGRFRLSEPADRETMAAELQRTNPAELLYAEDFAEMSLIEGRRGLRRRPLWEFEIDTARQQLNLQFGTRDLVGFGVENAPRGLSAAGALLQYAKDTQRTTLPHIRSITMEREQDSIIMDAATRRNLEITQNLAGGAENTLASVLDSTVTPMGSRMLKRWLHMPVRDTRVLLERQQTIGALQDFTAGLQPVLRQVGDLERILARLALRTARPRDLARMRHAFQQLPELRAQLETVDSAPVQALREKMGEFAELRDLLERAIIDTPPVLVRDGGVIASGYNEELDEWRALADGATDYLERLEVRERERTGLDTLKVGFNAVHGYYIQISRGQSHLAPINYMRRQTLKNAERYIIPELKEYEDKVLTSKGKALALEKQLYEELFDLLLPHLEALQQSASALAELDVLVNLAERAYTLNYTSPTFIDKPGIRITEGRHPVVEQVLNEPFIANPLNLSPQRRMLIITGPNMGGKSTYMRQTALIALMAYIGSYVPAQKVEIGPIDRIFTRVGAADDLASGRSTFMVEMTETANILHNATEYSLVLMDEIGRGTSTYDGLSLAWAVAENLANKIKALTLFATHYFELTQLPEKMEGVANVHLDALEHGDTIAFMHSVQDGAASKSYGLAVAALAGVPKEVIKRARQKLRELESIS",2,–,–
"MutS-CTD (His6-tagged C-terminal domain of E.coli MutS, residues 801-853) (domain or fragment, UniProt P23909 801-853, looked up) PNAAATQVDGTQMSLLSVPEETSPAVEALENLDPDSLTPRQALEWIYRLKSLV",–,2,4
"MutS-CTD^ΔHis6 (MutS-CTD with the N-terminal His6-tag removed by DAPase) (domain or fragment, E.coli, UniProt P23909 801-853, looked up) PNAAATQVDGTQMSLLSVPEETSPAVEALENLDPDSLTPRQALEWIYRLKSLV",–,–,4
"MutS-CTD^D835R (domain or fragment, E.coli, UniProt P23909 801-853, looked up) PNAAATQVDGTQMSLLSVPEETSPAVEALENLDPRSLTPRQALEWIYRLKSLV",–,–,2
